Reference: the supplement of paper PMC10126150
± gives the standard deviation of the averaged measurements.

System: ATP
Assay: switch fluorescence ratio, 500 uM ATP over buffer (Cy3 cluster intensity, sum of 5 cycles each) (fold (ratio)); higher = stronger signal-on switching upon ATP binding; sequences stand for … in TCGTCGGCAGCGTCAGATGTGTATAAGAGACAGTTTTTTTTTTTTTTTTTTTTTTTTT…TC
Conditions: aptamer strand: ATP DNA aptamer (quencher-CACCTGGGGGAGTATTGCGGAGGAAGG + anchor), 100 nM annealed; ATP concentration: 500 uM
Method in brief: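 Between each of five buffer/ATP cycles, the flow-cell was stripped with NaOH and re-annealed. Each cycle imaged Cy3-labelled switching-strand clusters, annealed to 100 nM quencher-labelled ATP aptamer on a modified Illumina MiSeq flow-cell, first in selection buffer and then after 15 min with 500 uM ATP at 22 °C. The fluorescence ratio is summed target-cycle over summed buffer-cycle Cy3 intensity per cluster, averaged per switch-domain sequence, with clusters outside 100-1000 RFU excluded.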
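Note: ATP exposure 15 min at 22 °C before imaging.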

Sequence	switch fluorescence ratio
TAGAAGGGCA	0.988 ± 0.015
TAGAAGGGGG	0.965 ± 0.016
TAGAAGTTTG	0.976 ± 0.026
TAGAATATAT	1.78 ± 1
TAGAATTAGG	0.987 ± 0.037
TAGAATTTGG	1.01 ± 0.06
TAGACACAGC	1.02 ± 0.12
TAGACCATGT	1.02 ± 0.034
TAGACGTCGT	0.965 ± 0.024
TAGACTTATG	1.04 ± 0.02
TAGAGAAATA	1.01 ± 0.064
TAGAGAATGG	0.994 ± 0.0086
TAGAGACTGA	1.023 ± 0.0022
TAGAGCACGG	1.02 ± 0.012
TAGAGCAGCT	1.03 ± 0.021
TAGAGGAAGG	0.979 ± 0.021
TAGAGGAGGC	0.996 ± 0.017
TAGAGGGCTG	1.01 ± 0.016
TAGAGGGGAT	0.985 ± 0.027
TAGAGGGGGA	0.987 ± 0.018
TAGAGGGTTG	0.969 ± 0.02
TAGAGGGTTT	1.02 ± 0.045
TAGAGGTTGG	0.981 ± 0.042
TAGAGTAACA	1 ± 0.035
TAGAGTCTTT	0.994 ± 0.013

Sequence	switch fluorescence ratio
TAGAGTTATT	1.01 ± 0.014
TAGAGTTGTT	0.984 ± 0.03
TAGATAGAGT	0.994 ± 0.024
TAGATATTTT	0.986 ± 0.032
TAGATCAAG	1.04 ± 0.028
TAGATTCGCT	0.993 ± 0.039
TAGATTCGTT	0.9907 ± 0.0071
TAGATTGAAA	0.986 ± 0.028
TAGATTGGGT	0.976 ± 0.033
TAGCAAGTGG	0.998 ± 0.043
TAGCAATGAA	1.53 ± 0.057
TAGCACGGAT	1.02 ± 0.038
TAGCAGATCA	0.994 ± 0.024
TAGCAGGGGG	1.03 ± 0.011
TAGCAGGTTA	1 ± 0.016
TAGCATGTGG	1.0006 ± 0.0008
TAGCCTTTGG	0.978 ± 0.034
TAGCCTTTTT	0.955 ± 0.015
TAGCGAGGGG	0.98529 ± 0.00026
TAGCGATTGT	1.02 ± 0.062
TAGCGCCCCG	0.987 ± 0.016
TAGCGGGCGT	0.964 ± 0.026
TAGCGGGGGG	1.02 ± 0.046
TAGCGGGTTG	1.03 ± 0.036
TAGCGTCTGT	0.983 ± 0.02

Sequence	switch fluorescence ratio
TAGCGTTTGG	1.01 ± 0.045
TAGCTAGTCG	1.01 ± 0.039
TAGCTCCGTA	1.09 ± 0.036
TAGCTGTTCG	0.9887 ± 0.004
TAGCTTCTGC	0.907 ± 0.063
TAGCTTTTAT	0.996 ± 0.032
TAGGAAAAAA	1.03 ± 0.033
TAGGAAAGAA	1.03 ± 0.028
TAGGAAATTA	1 ± 0.015
TAGGAAGGTT	0.9879 ± 0.0036
TAGGAATACG	1.24 ± 0.036
TAGGACGGGT	0.9932 ± 0.0054
TAGGAGCGTG	1.02 ± 0.044
TAGGAGGGGA	1.01 ± 0.029
TAGGAGTAAG	1.01 ± 0.03
TAGGATAGAC	1 ± 0.017
TAGGATAGGG	0.9972 ± 0.0021
TAGGATATTT	1 ± 0.02
TAGGATGTA	0.9643 ± 0.0014
TAGGATTGG	0.971 ± 0.015
TAGGATTGTG	0.9991 ± 0.0081
TAGGCAATCT	1.25 ± 0.092
TAGGCAGCGG	0.991 ± 0.023
TAGGCCAGTA	1.024 ± 0.0091
TAGGCCCCTG	0.985 ± 0.041

Sequence	switch fluorescence ratio
TAGGCCTAAT	0.9715 ± 0.003
TAGGCGGCGA	1 ± 0.022
TAGGCGGGGA	1.07 ± 0.059
TAGGCGTCTG	1 ± 0.012
TAGGCTGAAA	0.9906 ± 0.0024
TAGGCTGTTA	0.995 ± 0.036
TAGGCTTATG	0.9786 ± 0.0037
TAGGCTTTTG	1.03 ± 0.056
TAGGGAAAAT	0.9833 ± 0.0029
TAGGGAAACT	1.21 ± 0.26
TAGGGAACGT	1.04 ± 0.04
TAGGGAAGAG	0.996 ± 0.041
TAGGGAATGA	1 ± 0.016
TAGGGAATTA	1.01 ± 0.012
TAGGGACGCA	1.16 ± 0.018
TAGGGACTCT	0.995 ± 0.014
TAGGGAGATG	0.996 ± 0.056
TAGGGAGGGT	1.11 ± 0.2
TAGGGATTGG	1.01 ± 0.039
TAGGGCGCCA	0.995 ± 0.057
TAGGGGAAAA	1.02 ± 0.019
TAGGGGAATA	1.01 ± 0.044
TAGGGGAGAA	1.01 ± 0.014
TAGGGGCTTT	1.04 ± 0.062
TAGGGGGCCA	1.014 ± 0.004

Sequence	switch fluorescence ratio
TAGGGGGGAT	0.992 ± 0.035
TAGGGGGGT	0.9765 ± 0.0032
TAGGGGGTCA	1 ± 0.022
TAGGGGGTT	1.01 ± 0.026
TAGGGGTCCA	0.987 ± 0.018
TAGGGGTCTG	1.032 ± 0.0059
TAGGGGTGCC	0.98 ± 0.034
TAGGGGTGCG	1 ± 0.038
TAGGGGTGGT	0.984 ± 0.032
TAGGGTATGG	0.9792 ± 0.0083
TAGGGTGGGG	0.99 ± 0.072
TAGGGTTCGC	1.06 ± 0.082
TAGGGTTTAA	1.01 ± 0.021
TAGGGTTTGG	0.992 ± 0.014
TAGGTAAATC	1.01 ± 0.024
TAGGTAAGAT	0.993 ± 0.015
TAGGTAGTTG	0.952 ± 0.051
TAGGTATTCA	0.9988 ± 0.0046
TAGGTCCAAT	1.01 ± 0.015
TAGGTCCGTT	0.988 ± 0.031
TAGGTCTGTG	0.987 ± 0.014
TAGGTGAGGG	1.11 ± 0.16
TAGGTGGAAA	0.992 ± 0.042
TAGGTGGGGC	0.996 ± 0.03
TAGGTGGTTG	1 ± 0.03

Sequence	switch fluorescence ratio
TAGGTTATTG	0.995 ± 0.024
TAGGTTCGAC	0.972 ± 0.031
TAGGTTGAAC	0.974 ± 0.05
TAGGTTGATG	0.981 ± 0.035
TAGGTTGTGG	0.994 ± 0.016
TAGGTTTGCA	1.02 ± 0.039
TAGTAAGTCA	0.976 ± 0.023
TAGTAATGGT	1.032 ± 0.0084
TAGTACGGAT	1.01 ± 0.007
TAGTACTAGA	1.03 ± 0.02
TAGTACTATC	0.993 ± 0.021
TAGTAGACTC	1.46 ± 0.75
TAGTAGGGGG	0.9691 ± 0.0061
TAGTAGTGTG	0.9625 ± 0.001
TAGTATAG	0.9745 ± 0.0045
TAGTATTGTA	1 ± 0.039
TAGTCGGAGA	1.01 ± 0.019
TAGTCGTCGT	1.02 ± 0.0021
TAGTCTTGGG	1.001 ± 0.0026
TAGTGGGAGA	1.03 ± 0.029
TAGTGGGCGG	1.07 ± 0.046
TAGTGGGGGT	1.01 ± 0.022
TAGTGTAGGA	1 ± 0.034
TAGTGTCAGG	0.988 ± 0.038
TAGTGTTGGT	0.975 ± 0.016

Sequence	switch fluorescence ratio
TAGTTAGGCA	0.9819 ± 0.0053
TAGTTAGTGT	0.981 ± 0.013
TAGTTATTTA	0.99 ± 0.033
TAGTTATTTT	1.01 ± 0.021
TAGTTCGGTG	0.988 ± 0.042
TAGTTGAGCT	0.9997 ± 0.0061
TAGTTGCATT	0.994 ± 0.003
TAGTTGGGGT	1 ± 0.03
TAGTTGGTCT	0.974 ± 0.028
TAGTTGTTTT	1 ± 0.04
TAGTTTAGGT	0.9964 ± 0.0051
TAGTTTTAAA	1.02 ± 0.044
TAGTTTTATA	1.016 ± 0.009
TAGTTTTGAT	0.963 ± 0.029
TAGTTTTTTG	0.993 ± 0.053
TATAAAAAGC	1 ± 0.013
TATAAAAGTC	0.992 ± 0.023
TATAAAATTC	1.24 ± 0.43
TATAAATGTT	0.9936 ± 0.0065
TATAAATTTT	0.992 ± 0.036
TATAACGGAT	1.01 ± 0.025
TATAACGTCC	1.11 ± 0.093
TATAAGAAGC	0.993 ± 0.021
TATAAGACTA	1.02 ± 0.021
TATAAGATGT	0.983 ± 0.025

Sequence	switch fluorescence ratio
TATAAGCGGA	0.993 ± 0.028
TATAAGGAGT	1.01 ± 0.044
TATAAGGATC	0.982 ± 0.057
TATAAGGCTA	1.02 ± 0.028
TATAAGGGGG	0.982 ± 0.021
TATAAGGTGT	1.23 ± 0.11
TATAAGTTCC	1.07 ± 0.075
TATAAGTTGT	1 ± 0.011
TATAATAAGG	0.9996 ± 0.0098
TATAATACAA	1.024 ± 0.0097
TATAATCGGT	0.975 ± 0.014
TATAATTAGG	0.98 ± 0.027
TATAATTTAC	1.06 ± 0.017
TATACACGGA	1.08 ± 0.015
TATACATGCG	1.04 ± 0.025
TATACGACAT	1.16 ± 0.2
TATACGATTG	0.985 ± 0.013
TATACGGCCG	1 ± 0.0059
TATACGGGGC	1.01 ± 0.027
TATACGTGGG	1.03 ± 0.046
TATACGTTTT	1.12 ± 0.14
TATACTGCAC	1.54 ± 0.032
TATACTGCGC	1.065 ± 0.0087
TATAGAAATA	0.998 ± 0.017
TATAGAAGGG	1 ± 0.053
